Data set [1] can be described thus: folding stability dG unfold from trypsin proteolysis; higher = more stable. A digest of the protocol: (§1)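 Designed mini-proteins (under 80 residues, no cysteine) in a PA-tagged cDNA display construct were digested with trypsin and chymotrypsin. Each protease was used at 11 concentrations (threefold dilutions) plus a no-protease condition, followed by sequencing. K50 was inferred by Bayesian fitting of sequencing counts, and unfolding free energy was derived against a sequence-predicted unfolded-state K50 and a shared folded-state K50, per protease or combined. Only designs with AlphaFold2 dimer inter-PAE above 15 were kept.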

A short description of data set [2]: folding stability dG unfold (combined trypsin and chymotrypsin); higher = more stable. A digest of the protocol:
as §1

Data set [3] can be described thus: folding stability dG unfold from chymotrypsin proteolysis; higher = more stable. The procedure, abridged: as §1

± gives the half width of the 95% confidence interval.

In the case of “SAMERVEIVVKVKVRPDMSLEELKERVERELRRLLEERGIELPEGAKITVEIVEETEDYVVVKVTIELPSAG [r14_735_TrROS_Hall]”, the “folding stability dG unfold” value in data set [1] stood at 4.53 ± 0.24 kcal/mol; in data set [2], 4.4 ± 0.32 kcal/mol; in data set [3], 2.91 ± 0.14 kcal/mol.
Taken in the same sequence, the figures for “SAMETYEYPVTGDSATFTVPVPPDHIAKVTVHYPSGSTDTVVPPGVTTTFTVPSSNATVTITIYPRSALSAG [r14_882_JUSTAS]” were 1.01 ± 0.025 kcal/mol, 1.34 ± 0.068 kcal/mol and 1.53 ± 0.11 kcal/mol.
“SAMEVIELEFPSVEELEAALKEKFNVEVEKLPDGTKRIKVEVDGELVLIEITDDKVRIRIISKEELEKLSAG [r14_402_TrROS_Hall]”: the “folding stability dG unfold” value in data set [1] turned out to be 3.05 ± 0.095 kcal/mol; in data set [2], 2.42 ± 0.13 kcal/mol; in data set [3], 1.53 ± 0.041 kcal/mol.
The matching figures for “SAMEYTLEFDNLKGLTADEIEKAFRDEGYPDVKINGIRRNPDDWTITVHYGPGMPPNRVQNAIRKAIQESAG [r14_657_TrROS]”: 1.21 ± 0.045 kcal/mol, 1.62 ± 0.11 kcal/mol and 1.87 ± 0.091 kcal/mol.
Taken in the same sequence, the figures for “SAMIEIPFSPDTPVEERLAMIKEAIEAAKAAGIEPKEITLIVPPDREDILEAVEEAGIPKERVKIKDQPSAG [r14_589_JUSTAS]” were 0.789 ± 0.045 kcal/mol, 1.24 ± 0.07 kcal/mol and 1.49 ± 0.057 kcal/mol.
Take “SAMIKVVLPGAKLEKVEVFPDKTVKAVFVAKDHLVEIYFDPETGKALIRVYDGEKEYEFVLDVHPDDVISAG [r14_218_TrMRF]”: the “folding stability dG unfold” value in data set [1] worked out at 3.47 ± 0.31 kcal/mol; in data set [2], 4.33 ± 0.4 kcal/mol; in data set [3], 4.8 ± 0.25 kcal/mol.
For “SAMILLIKIENKNDGKEFIIEITPNKITIYDKKTGKKYEITVDGNTITIKINGKTYKAKIKEVIPEEELSAG [r14_208_TrROS_Hall]”, the “folding stability dG unfold” value in data set [1] worked out at 3.23 ± 0.2 kcal/mol; in data set [2] it was 3.54 ± 0.49 kcal/mol; in data set [3], 3.86 ± 0.096 kcal/mol.
On to “SAMIVVPATFDDRTFVLRIERLPDGSYLVDVEDPDVSREAVVEALRELLPEDAKIVLDPETNLVYVSFDSAG [r14_370_TrMRF]”, for which the figures for the “folding stability dG unfold” value in data set [1], in data set [2] and in data set [3] were 3.34 ± 0.11 kcal/mol, 3.55 ± 0.086 kcal/mol and 3.73 ± 0.052 kcal/mol, respectively.
As to “SAMKIIKINGKEVLLVKNENGEILIFVKNKKTNKYYLVKIEIKDGKIKIVEVKPIKTYSLEELLKEELLSAG [r14_384_TrROS_Hall]”, the “folding stability dG unfold” value in data set [1] is 3.22 ± 0.16 kcal/mol; in data set [2], 3.42 ± 0.11 kcal/mol; in data set [3] it was 3.45 ± 0.023 kcal/mol.
The matching figures for “SAMKIKIKVIGVLKPENHALIFLELDDSIPPEIPVVIRIKNENGEILEIPIEGNRALLVVDDRKIEILTSAG [r14_350_TrMRF]”: 1.82 ± 0.08 kcal/mol, 1.73 ± 0.12 kcal/mol and 1.67 ± 0.072 kcal/mol.
For the sequence “SAMKIKVPPGAEIITEDGEKIEPGQEVEVTDIEFDEETGEVHITVKIKNPETGEEIEEKVTIRFPKEEESAG [r14_258_TrROS_Hall]”, the “folding stability dG unfold” value is 1.29 ± 0.11 kcal/mol in data set [1], 1.09 ± 0.15 kcal/mol in data set [2] and 0.977 ± 0.042 kcal/mol in data set [3].
Regarding “SAMKITEITYDKETNTITITVEIKLPPGVKKIKLKLFIDGAEIEEITMEVDEETGTVRITLKIRIPKDASAG [r14_244_TrROS_Hall]”, the “folding stability dG unfold” value in data set [1] was 4.9 ± 0.88 kcal/mol; in data set [2] it was more than 6 kcal/mol; in data set [3] it was 6.06 ± 0.78 kcal/mol.
Taken in the same sequence, the figures for “SAMKKIKLSPEALELAKKLPPDYKVTEIKVEKLEDGTVVVTLTVEKTNENGEKEKVELTIVLDKDGKPVSAG [r14_420_TrROS_Hall]” were 0.619 ± 0.065 kcal/mol, 0.757 ± 0.37 kcal/mol and 0.0295 ± 0.46 kcal/mol.
Taken in the same sequence, the figures for “SAMKKTETRVLEIRIGDYLAKIFLTEYEDGRVETLIEVYGPDPAVVEEVKDFLEKLDPDLEITEIVVLDSAG [r14_611_TrMRF]” were 3.13 ± 0.072 kcal/mol, 2.68 ± 0.12 kcal/mol and 2.23 ± 0.032 kcal/mol.
The matching figures for “SAMKPFPAKEAIEQILEEMEDMPLPPGQEEVEFQIRLPDDGAPVQISIERNPGKWKIEIYVGNKPIWITSAG [r14_199_TrROS]”: 1.7 ± 0.082 kcal/mol, 2.05 ± 0.12 kcal/mol and 2.43 ± 0.14 kcal/mol.
With “SAMKPGEKVKIKIITFEKKKDPKTGEEKIEMKEIEIEATITEVEEKDGKVTVKIKIENLPPGAMIIIEKSAG [r14_412_TrROS_Hall]”, the results for the “folding stability dG unfold” value in data set [1], in data set [2] and in data set [3] were 2.05 ± 0.069 kcal/mol, 3.18 ± 0.086 kcal/mol and 3.64 ± 0.087 kcal/mol, respectively.
Consider “SAMKTEVIEFENFTIVVEELPDGSKKIIILFENPEKAKEALEKNPWIKEFIAEAEKEGYDVELAVVEPESAG [r14_873_TrMRF]”, for which the “folding stability dG unfold” value came out at 3.21 ± 0.12 kcal/mol in data set [1], 3.21 ± 0.085 kcal/mol in data set [2] and 3.31 ± 0.042 kcal/mol in data set [3].
Taken in the same sequence, the figures for “SAMKTVTIKVTVEVTKNENGEEVKTVTVTLTLPEEEMTEEQLKELAKELADKLAEENNLTVKITKIEVTSAG [r14_190_TrROS_Hall]” were 3.27 ± 0.19 kcal/mol, 3.08 ± 0.06 kcal/mol and 2.93 ± 0.1 kcal/mol.
Taken in the same sequence, the figures for “SAMKTYTLPNATITVETLPGDNTIVVTVTDPESGKTTTTTVSLDDPSLTIENIIARIEEQIKAGKPVSLSAG [r14_157_JUSTAS]” were 2.33 ± 0.1 kcal/mol, 2.16 ± 0.14 kcal/mol and 2.16 ± 0.054 kcal/mol.
Take “SAMKVEIVEVKKNEDGSEEITIKIVVPDDKDMTPEELAALLKKEFGVDEVKVEVVDENGYKVITITIKRSAG [r14_228_TrROS_Hall]”: the “folding stability dG unfold” value in data set [1] was 4.03 ± 0.26 kcal/mol; in data set [2] it was 3.9 ± 0.24 kcal/mol; in data set [3], 3.55 ± 0.15 kcal/mol.
For “SAMKVTITVTKHTLPDGTPYYTVTITDPSTGKTFSGPVSSEEEAKATAQALADKIEAEGTPVTITFTDDSAG [r14_263_JUSTAS]”, the “folding stability dG unfold” value in data set [1] stood at 3.97 ± 0.23 kcal/mol; in data set [2] it was 3.99 ± 0.14 kcal/mol; in data set [3] it was 4.03 ± 0.086 kcal/mol.
For “SAMKWSEVVVSYPSDRWYAEIYTPGPGGELTSVSYREFDSLEELEQWIEEKAPPGEVEVKREPAPPELLSAG [r14_964_JUSTAS]”, the figures for the “folding stability dG unfold” value in data set [1], in data set [2] and in data set [3] were 1.17 ± 0.033 kcal/mol, 0.967 ± 0.051 kcal/mol and 0.722 ± 0.094 kcal/mol, respectively.
Taken in the same sequence, the figures for “SAMKYTVKLPPGAEPIQPEELAALPYVEVVEVEISDGEDGTRTLTITVSPDVPEENVEKLKEYIEKKLKSAG [r14_421_JUSTAS]” were 2.93 ± 0.077 kcal/mol, 3.12 ± 0.085 kcal/mol and 3.17 ± 0.043 kcal/mol.
Consider “SAMKYVELKLTITVPKEKEEEIEKLKKALEKLGAEIVSVEVEYDEETEEVTVTVTIRIENLSEEELKKASAG [r14_956_TrROS_Hall]”, for which the “folding stability dG unfold” value in data set [1] came out at 1.97 ± 0.048 kcal/mol; in data set [2] it was 2.69 ± 0.086 kcal/mol; in data set [3], 2.97 ± 0.08 kcal/mol.
The matching figures for “SAMLRIRVEYEDGRVEDIVIPLAGEDPPFGKEAVEEAAERIAKEVEEKYGLKNVKTEVEAFPVSPEELLSAG [r14_378_TrMRF]”: 0.326 ± 0.096 kcal/mol, 0.818 ± 0.1 kcal/mol and 1.06 ± 0.2 kcal/mol.
Turning to “SAMMYLIRVTITVKNKETGEEKEIEVEILIEKEEGELTEEEIEELARKLAEELGLEVEEIKIEIEPLPESAG [r14_278_TrROS_Hall]”, the “folding stability dG unfold” value in data set [1] amounted to 4.34 ± 0.2 kcal/mol; in data set [2], 5.3 ± 0.24 kcal/mol; in data set [3] it was 5.28 ± 0.16 kcal/mol.
Regarding “SAMNLRFPLSTEALAKLLENLTPDQTLELRVRIGDRWVRVRLEIHRIERKEDELRVEVTLEVEPLRPEDSAG [r14_335_TrMRF]”, the figures for the “folding stability dG unfold” value in data set [1], in data set [2] and in data set [3] were 3.33 ± 0.095 kcal/mol, 3.35 ± 0.19 kcal/mol and 3.34 ± 0.06 kcal/mol, respectively.
Consider “SAMPKPALTIEIPLPNGQTVRIDVYYDPETGTYTVNVTRTLPNGEPFTRTYTVESPEEAIKNIEVTDFGSAG [r14_749_TrMRF]”, for which the “folding stability dG unfold” value in data set [1] turned out to be 3.29 ± 0.13 kcal/mol; in data set [2] it was 3.24 ± 0.12 kcal/mol; in data set [3], 3.18 ± 0.078 kcal/mol.
The matching figures for “SAMPLDDLPAEQIRELVRSIMRKHGMPPDNVEVDVEVQRPPDGYYYITVDVEMRMNGKERKYKFTIWIPSAG [r14_703_TrROS]”: 2.99 ± 0.072 kcal/mol, 3.75 ± 0.1 kcal/mol and 4.17 ± 0.05 kcal/mol.
The matching figures for “SAMPVFTFPVEIPGPEYTPEEIVAILKEAAAKLNLPVDEEVIRELAEKALAEGTTVADIIEEILKRGLGSAG [r14_364_JUSTAS]”: 3.07 ± 0.094 kcal/mol, 2.52 ± 0.077 kcal/mol and 1.88 ± 0.045 kcal/mol.
Taken in the same sequence, the figures for “SAMPVVTLKAKVTIHSDPNGIEEKEIEITVTFPDPNVGLEEAKKKAEEAIKEYAEKNGLKIELEEITIESAG [r14_190_JUSTAS]” were 1.19 ± 0.08 kcal/mol, 1.88 ± 0.09 kcal/mol and 2.06 ± 0.047 kcal/mol.
Turning to “SAMRAAVLAAAEEITAHPEFEAVGISPDGTFLFRNPATGKVYRIRLEAEDDGEGVIVRVPSIEPLDAPDSAG [r14_20_TrMRF]”, the “folding stability dG unfold” value in data set [1] is 1.43 ± 0.028 kcal/mol; in data set [2] it was 1.75 ± 0.087 kcal/mol; in data set [3], 1.92 ± 0.051 kcal/mol.
Taken in the same sequence, the figures for “SAMRILIEFDSPEEAEEALRKLVEEAGLVLEEIKVEIAPAKVTTTTPDGKKVTKTKYFALAEIKLSKKESAG [r14_773_TrMRF]” were 1.47 ± 0.067 kcal/mol, 2.12 ± 0.19 kcal/mol and 2.19 ± 0.086 kcal/mol.
The matching figures for “SAMRPGDPWKPVEERKIPIRNPNNGKEIEIEVYRFKDDGMYMVSIHFPDGKSIQFMVPPGDVEEIIEQISAG [r14_240_TrROS]”: 1.29 ± 0.037 kcal/mol, 2.8 ± 0.058 kcal/mol and 3.171 ± 0.016 kcal/mol.
Regarding “SAMSLTIETDGSLEDVIAALKAFLEANPNVPFIISPPNGEVKVIDLGLADKILVIPDPDGKVRITVINPSAG [r14_807_TrMRF]”, the “folding stability dG unfold” value came to 1.76 ± 0.023 kcal/mol in data set [1], 1.75 ± 0.036 kcal/mol in data set [2] and 1.7 ± 0.024 kcal/mol in data set [3].

The record behind these values is the supplement of paper PMC12764529.
